Publication PMC11554844, “BEACH domain proteins function as cargo-sorting adaptors in secretory and endocytic pathways” (The Journal of Cell Biology, 2024)

Experiments:
Assay in all cases: pull-down; GST-CTLA4 (201–215) immobilised on glutathione-sepharose beads, incubated overnight at 4°C with purified protein (1 µg MBP fusion, 1 µg NBEAL2, 0.2 µg LRBA, or purified 3xFlag-EGFP-NBEAL2 fragment); washed six times in 50 mM Tris-HCl pH 7.4, 150 mM NaCl, 1% Triton X-100; detected by blot (anti-NBEAL2, anti-LRBA, anti-Flag, anti-MBP)
Settings in all cases: both partners purified
[1] = biological target: T1, Purified full-length untagged LRBA (human, UniProt P50851-1 1-2863)
T1 construct: LRBA, human; also called 3xFlag-EGFP-SUMOstar-LRBA after SUMOstar protease; source: FreeStyle 293-F, transiently transfected, purified (GFP-Trap agarose, eluted with SUMOstar protease); not shown: 3xFlag, N-terminal, cleaved; EGFP, N-terminal, cleaved; SUMOstar, N-terminal, cleaved

[2] = biological target: T2, Purified full-length untagged NBEAL2 (human, UniProt Q6ZNJ1-1 1-2754)
T2 construct: NBEAL2, human; also called 3xFlag-EGFP-SUMOstar-NBEAL2 after SUMOstar protease; source: FreeStyle 293-F, transiently transfected, purified (GFP-Trap agarose, eluted with SUMOstar protease); not shown: 3xFlag, N-terminal, cleaved; EGFP, N-terminal, cleaved; SUMOstar, N-terminal, cleaved

[3] = biological target: T3, 3xFlag-EGFP-NBEAL2(1792-2754) (human, UniProt Q6ZNJ1-1 1792-2754)
T3 construct: NBEAL2, human, C-terminal fragment with the PH-BEACH-WD40 domains; The legend's upper limit 2794 differs from the plasmid's name; also called C-terminal fragment of NBEAL2; C-terminal (PH-BEACH-WD40 domains) fragment of NBEAL2; source: purified; not shown: 3xFlag, N-terminal, kept; EGFP, N-terminal, kept

Measured: binding result

T3 sequence (Q6ZNJ1 1792-2754): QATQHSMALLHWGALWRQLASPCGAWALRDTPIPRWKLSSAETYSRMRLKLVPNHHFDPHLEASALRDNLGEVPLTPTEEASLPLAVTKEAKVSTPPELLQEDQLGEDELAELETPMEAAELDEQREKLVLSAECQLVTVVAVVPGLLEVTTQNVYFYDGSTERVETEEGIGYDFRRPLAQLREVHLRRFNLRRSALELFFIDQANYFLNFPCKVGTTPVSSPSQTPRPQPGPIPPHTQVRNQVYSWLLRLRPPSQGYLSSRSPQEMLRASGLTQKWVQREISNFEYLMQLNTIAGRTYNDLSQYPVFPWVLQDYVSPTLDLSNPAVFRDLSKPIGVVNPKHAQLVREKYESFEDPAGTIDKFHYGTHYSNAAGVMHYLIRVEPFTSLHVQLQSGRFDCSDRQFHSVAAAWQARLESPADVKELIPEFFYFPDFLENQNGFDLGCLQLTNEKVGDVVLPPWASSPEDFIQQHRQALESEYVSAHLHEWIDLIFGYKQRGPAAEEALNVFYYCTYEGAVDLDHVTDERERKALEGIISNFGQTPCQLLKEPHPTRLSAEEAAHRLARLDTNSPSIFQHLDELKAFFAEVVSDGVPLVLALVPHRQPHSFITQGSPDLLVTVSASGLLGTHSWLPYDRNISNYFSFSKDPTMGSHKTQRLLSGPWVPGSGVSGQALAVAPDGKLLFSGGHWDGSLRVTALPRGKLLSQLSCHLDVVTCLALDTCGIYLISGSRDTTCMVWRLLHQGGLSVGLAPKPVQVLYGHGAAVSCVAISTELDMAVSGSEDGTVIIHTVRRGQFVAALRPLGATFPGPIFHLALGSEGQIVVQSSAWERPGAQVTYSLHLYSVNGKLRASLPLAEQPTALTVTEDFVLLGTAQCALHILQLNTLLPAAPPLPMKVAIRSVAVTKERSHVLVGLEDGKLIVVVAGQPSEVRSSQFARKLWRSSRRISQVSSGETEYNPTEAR
T2 sequence (Q6ZNJ1 whole entry): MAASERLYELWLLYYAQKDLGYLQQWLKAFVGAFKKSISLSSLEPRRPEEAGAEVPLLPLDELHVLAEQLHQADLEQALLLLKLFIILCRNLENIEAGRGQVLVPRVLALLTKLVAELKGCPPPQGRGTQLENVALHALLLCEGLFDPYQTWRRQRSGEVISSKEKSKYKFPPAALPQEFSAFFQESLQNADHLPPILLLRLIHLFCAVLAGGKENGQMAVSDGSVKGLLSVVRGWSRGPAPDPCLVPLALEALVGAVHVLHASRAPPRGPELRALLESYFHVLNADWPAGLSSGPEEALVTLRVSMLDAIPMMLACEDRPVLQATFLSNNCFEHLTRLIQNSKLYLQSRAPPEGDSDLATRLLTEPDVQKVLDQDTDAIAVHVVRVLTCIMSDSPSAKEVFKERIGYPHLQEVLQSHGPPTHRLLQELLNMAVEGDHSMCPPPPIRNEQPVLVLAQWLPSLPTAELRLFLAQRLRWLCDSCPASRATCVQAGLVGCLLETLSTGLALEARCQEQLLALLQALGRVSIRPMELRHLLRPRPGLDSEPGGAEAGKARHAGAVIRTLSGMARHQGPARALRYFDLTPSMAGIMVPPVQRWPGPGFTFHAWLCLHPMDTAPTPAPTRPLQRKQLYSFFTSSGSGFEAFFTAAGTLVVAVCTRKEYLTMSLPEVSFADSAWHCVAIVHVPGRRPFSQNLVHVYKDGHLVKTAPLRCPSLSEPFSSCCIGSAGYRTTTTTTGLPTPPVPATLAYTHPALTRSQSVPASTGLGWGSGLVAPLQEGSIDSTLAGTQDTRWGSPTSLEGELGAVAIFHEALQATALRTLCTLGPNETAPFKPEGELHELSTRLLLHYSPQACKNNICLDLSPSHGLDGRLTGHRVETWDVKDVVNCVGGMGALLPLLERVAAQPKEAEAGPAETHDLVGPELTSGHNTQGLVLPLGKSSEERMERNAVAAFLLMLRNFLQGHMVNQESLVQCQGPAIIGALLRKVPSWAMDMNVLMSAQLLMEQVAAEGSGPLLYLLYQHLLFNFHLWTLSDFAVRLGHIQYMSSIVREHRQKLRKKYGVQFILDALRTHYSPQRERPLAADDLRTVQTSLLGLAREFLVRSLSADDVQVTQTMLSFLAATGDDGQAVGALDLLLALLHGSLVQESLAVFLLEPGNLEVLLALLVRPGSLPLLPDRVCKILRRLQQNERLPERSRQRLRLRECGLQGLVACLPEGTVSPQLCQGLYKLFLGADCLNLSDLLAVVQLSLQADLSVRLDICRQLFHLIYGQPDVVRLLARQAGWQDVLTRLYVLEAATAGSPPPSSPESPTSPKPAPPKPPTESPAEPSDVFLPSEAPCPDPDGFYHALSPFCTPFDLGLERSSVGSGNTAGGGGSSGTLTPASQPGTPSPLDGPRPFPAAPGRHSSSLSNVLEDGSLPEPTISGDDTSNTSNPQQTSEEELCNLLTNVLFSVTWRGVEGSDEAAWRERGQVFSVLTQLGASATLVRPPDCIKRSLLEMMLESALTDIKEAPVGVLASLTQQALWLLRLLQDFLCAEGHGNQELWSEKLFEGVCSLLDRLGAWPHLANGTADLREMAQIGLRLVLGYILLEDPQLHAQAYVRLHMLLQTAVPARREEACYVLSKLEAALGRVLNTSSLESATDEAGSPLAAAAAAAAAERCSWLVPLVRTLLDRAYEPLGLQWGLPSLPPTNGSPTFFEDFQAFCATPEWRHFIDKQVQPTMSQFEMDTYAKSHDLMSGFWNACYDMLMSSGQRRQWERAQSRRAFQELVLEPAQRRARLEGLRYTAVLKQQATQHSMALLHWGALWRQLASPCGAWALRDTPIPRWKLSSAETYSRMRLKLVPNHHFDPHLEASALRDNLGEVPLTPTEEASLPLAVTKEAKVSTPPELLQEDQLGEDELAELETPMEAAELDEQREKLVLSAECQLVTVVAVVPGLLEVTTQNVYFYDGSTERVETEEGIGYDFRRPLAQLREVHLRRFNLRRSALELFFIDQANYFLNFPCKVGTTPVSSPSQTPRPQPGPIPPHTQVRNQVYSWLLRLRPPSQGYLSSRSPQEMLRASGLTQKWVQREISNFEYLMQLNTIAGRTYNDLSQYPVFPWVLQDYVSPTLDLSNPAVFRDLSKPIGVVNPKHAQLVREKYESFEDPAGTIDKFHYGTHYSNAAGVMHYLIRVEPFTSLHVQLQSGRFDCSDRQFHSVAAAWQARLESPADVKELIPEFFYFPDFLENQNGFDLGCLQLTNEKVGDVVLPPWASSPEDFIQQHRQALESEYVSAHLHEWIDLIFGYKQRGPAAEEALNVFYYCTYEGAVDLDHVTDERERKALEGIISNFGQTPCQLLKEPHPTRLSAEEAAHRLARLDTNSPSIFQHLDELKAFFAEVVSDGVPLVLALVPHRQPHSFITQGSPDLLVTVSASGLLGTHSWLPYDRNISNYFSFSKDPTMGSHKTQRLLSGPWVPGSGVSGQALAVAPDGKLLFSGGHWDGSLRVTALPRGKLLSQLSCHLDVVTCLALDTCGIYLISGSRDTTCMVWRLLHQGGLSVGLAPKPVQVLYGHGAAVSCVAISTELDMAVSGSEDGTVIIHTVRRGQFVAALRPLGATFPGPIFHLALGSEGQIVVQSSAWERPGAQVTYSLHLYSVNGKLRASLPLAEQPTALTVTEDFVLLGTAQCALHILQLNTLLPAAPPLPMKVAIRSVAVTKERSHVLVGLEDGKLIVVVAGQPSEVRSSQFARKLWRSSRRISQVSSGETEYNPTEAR

B1: GST-CTLA4 (201–215) (domain or fragment, human, UniProt P16410 201-215, looked up)
chain: YVKMPPTEPECEKQF
notes: source: E. coli BL21(DE3), purified on Glutathione Sepharose 4B beads
binds: all assays above
